Data published in patent US20250101446A1, “METHOD FOR GENETIC TRANSFORMATION OF PLANT ORGANELLE GENOME AND USES THEREOF” (Solar Grants Biotechnology Inc., priority 2022, published 2025).

Test system: IA-stimulated PBMCs
Assay: Counts of significant modulations over all treatments of IA-stimulated PBMCs (LPS or PHA)
Format: cell-based, human
Description: The bioactivity of our plantakines IL-37b and IL-38 was assessed by monitoring the secretion of 11 cytokines, generally regarded as inflammatory markers, from PBMCs stimulated with an IA. Freshly isolated human PBMCs were subjected to various treatments-combinations of the IAs with the plantakines at different concentrations. Two different model IAs were used, either the bacterial lipopolysaccharides (LPS) or a lectin from Phaseolus vulgaris (phytohaemagglutinin, PHA); each of the IAs was applied onto cells separately, each IA was applied at two concentrations: LPS at 150 and 300 μg/mL; PHA at 5 and 10 μg/mL. Each IA at each concentration was applied in combination with one of the two plantakines, each of them at three different concentrations: 1, 10 and 100 ng/ml of the monomeric forms present in the purified extracts. Also included were treatments comprised of either IA at their lower concentrations, in combination with both plantakines at 10 ng/ml concentration in order to assess possible synergistic effects. Cells with only IAs applied represented the reference (positive controls for each concentration), cells without any treatment represented the basal level (negative control). The levels of eleven different pro-inflammatory cytokines secreted into the medium from the PBMCs-GM-SCF, IFNγ. TNFα, IL-1α, IL-1β, IL-6, IL-8, IL-22, IL12, IL-17 and IL-10 were compared between the treatments and the controls. We applied Generalized Estimating Equation (GEE) model for the statistical data analysis. This statistical approach allows for nested observations and was used to test the effects of the plantakines IL-37b and IL-38 and their dosage in the context of IA-stimulated PBMCs inflammatory responses. […]
Non-linear logarithm transformation was performed to address non-normality of distribution of Luminex-derived numeric data. […] Separate analyses were conducted for each of the 11 monitored cytokines and each inflammatory agent/concentration combination. […]

[1] = separate applications, either IA, all concentrations

B1: plant-produced recombinant human IL-38, mature form C2-W152 with C-terminal 7xHIS tag (ligand)
chain: CSLPMARYYIIKYADQKALYTRDGQLLVGDPVADNCCAEKICILPNRGLARTKVPIFLGIQGGSRCLACVETEEGPSLQLEDVNIEELYKGGEEATRFTFFQSSSGSAFRLEAAAWPGWFLCGPAEPQQPVQLTKESEPSARTKFYFEQSWHHHHHHH
notes: range 2-152; also called rhIL-38; plantakine IL-38
attenuated rather than increased secretion of inflammatory cytokines, frequency ratio (all significant treatments): 1.7 times | number of treatments in which secretion of inflammatory cytokines was increased [1]: 22 treatments | number of treatments in which secretion of inflammatory cytokines was suppressed [1]: 30 treatments
